Experimental data as given in publication PMC6642547, “HERA-GITRL activates T cells and promotes anti-tumor efficacy independent of FcγR-binding functionality” (Journal for Immunotherapy of Cancer, 2019).

Biological target: T1, HERA-GITRL (hexavalent TNF receptor agonist); single-chain GITRL-receptor-binding-domain fused to a silenced … (human, UniProt Q9UNG2 56-177; Q9UNG2 56-177; Q9UNG2 56-177)
T1 construct: glycine-serine based linker, 8 amino acids in length; GITRL (TNFSF18), human, second copy of E56-S177; GITRL (TNFSF18), human, third copy of E56-S177; also called hexavalent HERA-GITRL; scGITRL-RBD-Fc; not shown: Strep-Tag II, C-terminal, kept
T1 sequence (Q9UNG2 whole entry, the tested form may be a part, one chain of several): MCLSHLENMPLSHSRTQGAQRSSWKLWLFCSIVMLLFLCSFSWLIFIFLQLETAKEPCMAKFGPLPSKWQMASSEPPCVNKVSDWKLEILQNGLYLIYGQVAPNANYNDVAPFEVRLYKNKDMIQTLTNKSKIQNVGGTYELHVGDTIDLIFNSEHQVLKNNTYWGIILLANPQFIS
Assay: not stated; binding to and dissociation from the GITR-Fc receptors measured in real time, equilibrium binding constants (KD) calculated; instrument and who was immobilised not told in what was shown
Settings: both partners purified

Kd: 0.602 nM
B1: cynomolgus monkey GITR-Fc (Fc fusion)
chain: QRPTGGPGCGPGRLLLGTGKDARCCRIHPTRCCGDYQGEECCSEWDCVCVQPEFHCGNPCCTTCQHHPCPSGQGVQPQGKFSFGFRCVDCALGTFSRGHDGHCKPWTDCTQFGFLTVFPGNKTHNAVCVPGSPPAEPPG
